Holding throughout (experiment): SPR; BIAcore T-200; chimeric Fc-type 1 receptor coupled to a Series S Protein A chip; ligands 6.25-0.049 nM flowed at 50 uL/min, 300 s association, 1000 s dissociation; 20 mM HEPES pH 7.4, 350 mM NaCl, 0.005 % P-20, 0.5 mg/mL BSA, 3.4 mM EDTA; kinetic 1:1 fit (also a bivalent fit); apparent KD = kd/ka; average of N=2
Holding throughout (settings): both partners purified

In assay [1] the target is T1, GDF5 homodimer (human, UniProt P43026 382-501).
T1 construct: Growth and Differentiation Factor 5 (GDF5), mature domain; Dimer stabilised by an inter-chain disulfide bond; also called homodimeric GDF5; Growth and Differentiation Factor 5
T1 sequence (looked up): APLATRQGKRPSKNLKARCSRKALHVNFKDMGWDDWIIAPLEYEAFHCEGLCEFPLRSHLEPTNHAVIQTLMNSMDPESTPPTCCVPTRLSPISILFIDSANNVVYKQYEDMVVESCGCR

Assay [2] has as its target T2, BMP2/GDF5 heterodimer (human, UniProt P12643 283-396; P43026 382-501).
T2 construct: bone morphogenetic protein 2 (BMP2), mature domain; Growth and Differentiation Factor 5 (GDF5), mature domain; Made by people from two natural mature chains; disulfide-linked dimer; also called GDF5/BMP2; WT heterodimer; copies: 1 + 1

Assay [3] concerns the target T3, BMP4/GDF5 heterodimer (human, UniProt P12644 293-408; P43026 382-501).
T3 construct: additional Met residue on the N-terminus of the BMP4 construct; bone morphogenetic protein 4 (BMP4), mature domain; Growth and Differentiation Factor 5 (GDF5), mature domain; Made by people from two natural mature chains; disulfide-linked dimer; also called GDF5/BMP4; copies: 1 + 1
T3 sequence 1: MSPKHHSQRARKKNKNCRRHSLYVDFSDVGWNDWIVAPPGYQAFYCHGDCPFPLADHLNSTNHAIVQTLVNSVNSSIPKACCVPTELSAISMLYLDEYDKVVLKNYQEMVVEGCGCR
T3 sequence 2: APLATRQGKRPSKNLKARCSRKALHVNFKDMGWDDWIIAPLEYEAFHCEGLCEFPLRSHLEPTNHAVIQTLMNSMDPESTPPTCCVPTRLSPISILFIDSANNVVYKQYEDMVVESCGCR

For assay [4], the target named is T4, BMP4 homodimer (human, UniProt P12644 293-408).
T4 construct: additional Met residue on the N-terminus of the BMP4 construct; bone morphogenetic protein 4 (BMP4), mature domain; Dimer stabilised by an inter-chain disulfide bond; also called homodimeric BMP4
T4 sequence: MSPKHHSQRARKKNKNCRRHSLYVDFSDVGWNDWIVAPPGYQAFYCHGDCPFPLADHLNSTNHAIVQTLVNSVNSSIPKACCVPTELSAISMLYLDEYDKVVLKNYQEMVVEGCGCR

Assay [5] addresses T5, BMP2 homodimer (human, UniProt P12643 283-396).
T5 construct: bone morphogenetic protein 2 (BMP2), mature domain; cDNA received from Hongwen Ma; Dimer stabilised by an inter-chain disulfide bond; Cloned in pET21a; no tag is mentioned; also called homodimeric BMP2; bone morphogenetic protein 2

T5 sequence (P12643 283-396): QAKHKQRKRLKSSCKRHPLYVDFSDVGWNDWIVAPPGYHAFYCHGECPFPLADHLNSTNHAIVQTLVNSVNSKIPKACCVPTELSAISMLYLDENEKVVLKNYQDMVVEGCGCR
T2 sequence (P12643 283-396, one chain of several): as the sequence (P12643 283-396) above

B1: FC-(Alk6)2 (Fc fusion, UniProt O00238 14-126, looked up)
chain: KKEDGESTAPTPRPKVLRCKCHHHCPEDSVNNICSTDGYCFTMIEEDDSGLPVVTSGCLGLEGSDFQCRDTPIPHQRRSIECCTERNECNKDLHPTLPPLKNRDFVDGPIHHR
notes: type 1 receptor Alk6 (BMPR1B) in a recombinant chimeric Fc-receptor; also called chimeric FC-receptor; source: bought: R&D (Cat# 505-PR-100)
As for B1, the Kd was determined as 0.057 nM in assay [1]; 0.026 nM in assay [2]; 0.046 nM in assay [3]; 0.113 nM in assay [4]; 0.102 nM in assay [5].

These data come from publication PMC9893541 (BMC Biology, 2023).
